The target in test [1] is T1, GP20: H-(GP)20HHHHHH-NH2 (C-terminal amide).
T1 peptide: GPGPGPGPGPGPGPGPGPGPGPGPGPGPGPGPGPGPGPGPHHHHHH
Kind of test: sandwich ELISA, peptide captured by anti-His antibody. The text has this: In brief, His-tagged dipeptide repeat protein peptides were synthesized and purified by Schafer-N(Copenhagen, Denmark): GA₂₀: H-(GA)₂₀HHHHHH-NH₂; GA₁₀: H-(GA)₁₀HHHHHH-NH₂; GA₆: H-(GA)₆HHHHHH-NH₂; GA₅: H-(GA)₅HHHHHH-NH₂; GA₄: H-(GA)₄HHHHHH-NH₂; GA₃: H-(GA)₃HHHHHH-NH₂; GA₂: H-(GA)₂HHHHHH-NH₂; GP₂₀: H-(GP)₂₀HHHHHH-NH₂; GP₁₀: H-(GP)₁₀HHHHHH-NH₂; GP₆: H-(GP)₆HHHHHH-NH₂; GP₅: H-(GP)₅HHHHHH-NH₂; GP₄: H-(GP)₄HHHHHH-NH₂; GP₃: H-(GP)₃HHHHHH-NH₂; GP₂: H-(GP)₂HHHHHH-NH₂. 96-well microplates (Corning Incorporated, Corning, USA) were coated with monoclonal mouse anti-His tag antibody (Takara Bio Europe/Clontech, Saint-Germain-en-Laye, France) at a concentration of 10 μg/ml in coating buffer (15 mM Na₂CO₃, 35 mM NaHCO₃, pH 9.42) overnight at 4° C. Non-specific binding sites were blocked for 1 h at room temperature with PBS/0.1% Tween®-20 containing 2% BSA (Sigma-Aldrich, Buchs, Switzerland). After a washing step, His-tagged C9orf72 DPR protein peptides at equal concentration of either 1 μM or 5 μM in PBS (pH 7.4) were added for target-trapping by the anti-His tag antibody for 1 h at room temperature. […] Antibody binding to DPR protein peptides was detected by a donkey anti-human IgG Fcγ-specific antibody conjugated with HRP at 1:5000 dilution (Jackson ImmunoResearch Laboratories, Inc., West Grove, USA) for 1 h at RT. Binding was determined by measurement of HRP activity in a standard colorimetric assay. EC₅₀ values were estimated by non-linear regression using GraphPad Prism software (San Diego, USA).
Background: An ELISA detects its analyte on a solid surface through an enzyme-linked reagent.

Test [2] concerns the target T2, GA5: H-(GA)5HHHHHH-NH2.
T2 peptide: H-GAGAGAGAGAHHHHHH-NH2
Kind of test: indirect ELISA, His-tagged peptide coated at 50 ug/ml, antibody titrated [also D00026 FIG. 7K]. As to the method:
(§1) 96-well microplates (Corning Incorporated, Corning, USA) were coated with dipeptide repeat protein peptides at a concentration of 50 μg/ml in coating buffer (15 mM Na₂CO₃, 35 mM NaHCO₃, pH 9.42). Non-specific binding sites were blocked for 1 h at room temperature with PBS/0.1% Tween®-20 containing 2% BSA (Sigma-Aldrich, Buchs, Switzerland). Primary antibodies were diluted to the indicated concentrations and incubated 1 h at room temperature, followed by incubation with a donkey anti-human IgG Fcγ-specific antibody conjugated with HRP (Jackson ImmunoResearch Laboratories, Inc., West Grove, USA). Binding was determined by measurement of HRP activity in a standard colorimetric assay. EC₅₀ values were estimated by non-linear regression using GraphPad Prism software (San Diego, USA).
(§2) High affinity binding was detected for poly-GA DPRs harboring 10 or 20 (GA)-repeats, reflected in an EC₅₀ in the subnanomolar or low nanomolar range (FIGS. 7A, 7C-7I).

Test [3] addresses T3, GA2: H-(GA)2HHHHHH-NH2.
T3 peptide: H-GAGAHHHHHH-NH2
The test is described as above. As to the method:
as §1, §2

Test [4] deals with T3, GA2: H-(GA)2HHHHHH-NH2. Briefly: indirect ELISA, His-tagged peptide coated at 50 ug/ml, antibody titrated [also D00025 FIG. 7G]. From the text:
(§3) In brief, dipeptide repeat proteins were synthesized and purified by Schafer-N (Copenhagen, Denmark): GA₂₀: H-(GA)₂₀HHHHHH-NH₂; GA₁₀: H-(GA)₁₀HHHHHH-NH₂; GA₆: H-(GA)₆HHHHHH-NH₂; GA₅: H-(GA)₅HHHHHH-NH₂; GA₄: H-(GA)₄HHHHHH-NH₂; GA₃: H-(GA)₃HHHHHH-NH₂; GA₂: H-(GA)₂HHHHHH-NH₂; GP₂₀: H-(GP)₂₀HHHHHH-NH₂; GP₁₀: H-(GP)₁₀HHHHHH-NH₂; GP₆: H-(GP)₆HHHHHH-NH₂; GP₅: H-(GP)₅HHHHHH-NH₂; GP₄: H-(GP)₄HHHHHH-NH₂; GP₃: H-(GP)₃HHHHHH-NH₂; GP₂: H-(GP)₂HHHHHH-NH₂. GR₂₀: H-(GR)₂₀HHHHHH-NH₂; GR₁₀: H-(GR)₁₀HHHHHH-NH₂; GR₆: H-(GR)₆HHHHHH-NH₂; GR₅: H-(GR)₅HHHHHH-NH₂; GR₄: H-(GR)₄HHHHHH-NH₂; GR₃: H-(GR)₃HHHHHH-NH₂; GR₂: H-(GR)₂HHHHHH-NH₂; PA₂₀: H-(PA)₂₀HHHHHH-NH₂; PA₁₀: H-(PA)₁₀HHHHHH-NH₂; PA₆: H-(PA)₆HHHHHH-NH₂; PA₅: H-(PA)₅HHHHHH-NH₂; PA₄: H-(PA)₄HHHHHH-NH₂; PA₃: H-(PA)₃HHHHHH-NH₂; PA₂: H-(PA)₂HHHHHH-NH₂; PR₂₀: H-(PR)₂₀HHHHHH-NH₂; PR₁₀: H-(PR)₁₀HHHHHH-NH₂; PR₆: H-(PR)₆HHHHHH-NH₂; PR₅: H-(PR)₅HHHHHH-NH₂; PR₄: H-(PR)₄HHHHHH-NH₂; PR₃: H-(PR)₃HHHHHH-NH₂; PR₂: H-(PR)₂HHHHHH-NH₂. 96-well microplates (Corning Incorporated, Corning, USA) were coated with dipeptide repeat protein peptides at a concentration of 50 μg/ml in coating buffer (15 mM Na₂CO₃, 35 mM NaHCO₃, pH 9.42). Non-specific binding sites were blocked for 1 h at room temperature with PBS/0.1% Tween®-20 containing 2% BSA (Sigma-Aldrich, Buchs, Switzerland). Primary antibodies were diluted to the indicated concentrations and incubated 1 h at room temperature, followed by incubation with a donkey anti-human IgG Fcγ-specific antibody conjugated with HRP (Jackson ImmunoResearch Laboratories, Inc., West Grove, USA). Binding was determined by measurement of HRP activity in a standard colorimetric assay. EC₅₀ values were estimated by non-linear regression using GraphPad Prism software (San Diego, USA).

Test [5] concerns the target T4, GA4: H-(GA)4HHHHHH-NH2.
T4 peptide: H-GAGAGAGAHHHHHH-NH2
The description is as above.
Description: as §3

By EC50 is commonly meant the midpoint of the concentration-response curve. Read a high EC50 as weaker potency.

B1: NI-308.5G2 (antibody, V domains shown)
VH: EVQLVQSGADLRNPGASVTVSCTASGYHFADNAINWLRQAPGQRLEWMGWINIYSGNTKYSQNFQGRVTFTRNTSASTAFMHLRSLRSEDTAVYFCARDPDSSGYYLPYFDYWGQGTLVTVSS
VL: DIQLTQSPDSLTLSLGERATINCKSSQSVFYNSNNKNYLAWYQQKPGQPPKLLMYWASTRESGVTDRFSGSGSGTDFTLTITNLQAEDVAVYYCQQFYSSPLTFGGGTKVEIK
notes: Recombinant complete human IgG1, kappa
For the molecule B1, the EC50 in test [1] turned out to be 38.2 nM. Besides, the binding result in test [2] and in test [3] was “no binding (tested: about 4x10^5 pM (last point))” each time.

B2: NI-308.18F7 (antibody, V domains shown)
VH: QVQLQESGPGLVKPSETLSVTCTVSGGSINDYYWNWIRQPAGKGLEWIGRIYASGTINYNPSLQSRVTMSIDTSKNQFSLDLISVSAADTAVYYCARWGQVVGDYYYGMDVWGQGTTVTVSS
VL: EIVLTQSPLSLSVTPGEPASISCKSSQSLQHTNGYNYLDWYLLKPGQSPQLLIFLTSNRASGVPDRFSGSGSGTNFTLKISRVEAEDVGVYYCMEGIQLWTFGQGTKLEIK
notes: as for B1
In the case of B2, the binding result in test [4] and in test [5] was “no binding (tested: about 4x10^5 pM (last point))” throughout.

Source of the values: patent US20200010567A1 (NEURIMMUNE, published 2020).
